Assay results reported in patent publication US20210220450A1, “TREATMENT OF AN IOP CONDITION” (The Research Foundation for The State University of New York, priority 2013, published 2021).

B1: NE-tPA: non-enzymatically active tPA, serine-478 replaced by alanine (Innovative Research) (protein)
chain: SYQVICRDEKTQMIYQQHQSWLRPVLRSNRVEYCWCNSGRAQCHSVPVKSCSEPRCFNGGTCQQALYFSDFVCQCPEGFAGKCCEIDTRATCYEDQGISYRGTWSTAESGAECTNWNSSALAQKPYSGRRPDAIRLGLGNHNYCRNPDRDSKPWCYVFKAGKYSSEFCSTPACSEGNSDCYFGNGSAYRGTHSLTESGASCLPWNSMILIGKVYTAQNPSAQALGLGKHNYCRNPDGDAKPWCHVLKNRRLTWEYCDVPSCSTCGLRQYSQPQFRIKGGLFADIASHPWQAAIFAKHRRSPGERFLCGGILISSCWILSAAHCFQERFPPHHLTVILGRTYRVVPGEEEQKFEVEKYIVHKEFDDDTYDNDIALLQLKSDSSRCAQESSVVRTVCLPPADLQLPDWTECELSGYGKHEALSPFYSERLKEAHVRLYPSSRCTAQHLLNRTVTDNMLCAGDTRSGGPQANLHDACQGDSGGPLVCLNDGRMTLVGIISWGLGCGQKDVPGVYTKVTNYLDWIRDNMRP
B2: RAP: inhibitor of LRP1 (protein, UniProt P30533 35-357, looked up)
Alpha-2-macroglobulin …: YSREKNQPKPSPKRESGEEFRMEKLNQLWEKAQRLHLPPVRLAELHADLKIQERDELAWKKLKLDGLDEDGEKEARLIRNLNVILAKYGLDGKKDARQVTSNSLSGTQEDGLDDPRLEKLWHKAKTSGKFSGEELDKLWREFLHHKEKVHEYNVLLETLSRTEEIHENVISPSDLSDIKGSVLHSRHTELKEKLRSINQGLDRLRRVSHQGYSTEAEFEEPRVIDLWDLAQSANLTDKELEAFREELKHFEAKIEKHNHYQKQLEIAHEKLRHAESVGDGERVSRSREKHALLEGRTKELGYTVKKHLQDLSGRISRARHNEL

Legend:
C57BL/6J mice = assay: Outflow facility in TA and protein treated C57BL/6J mouse eyes (Example 13); format: in vivo; details: TA five days before intravitreal protein (2 μl, 5 μg/μl); two days after injection
Experimental: C57BL/6J mice were divided into two groups:
1) Animals receiving bilateral steroid (TA) injection subconjunctivally five days prior to protein injection (FIG. 10b) and 2) Animals not receiving subconjunctival steroids (FIG. 10c).
(§1) 1) Animals that received unilateral intravitreal injection with 2 μl of tPA (5 μg/μl, Actilyse; Boehringer Ingelheim, Ingelheim am Rhein, Germany) while the contralateral eye received 2 μl of BSA (5 μg/μl; Gold Biotechnology, St Louis, Mo., USA), and 2) Animals that received unilateral intravitreal injections with 2 μl of non-enzymatically active tPA (NE-tPA/S478A-tPA) (5 μg/μl; Innovative Research, Novi, Mich., USA) while the contralateral eye received 2 μl of BSA. Animals were euthanized two days after intravitreal injection.
(§2) Outflow facility determination: Mouse eyes were enucleated immediately after euthanasia. Outflow facility was determined using a constant pressure method, as previously described. Pressure was raised in steps of 4 cmH2O, from 8 cmH2O (5.88 mmHg) to 32 cmH2O (23.54 mmHg) by increasing the height of a column of fluid of BSS. […] Flow was constantly measured via a microfluidic flow sensor (0.07-1.5 uL/min, MFS1; Elveflow, Paris, France). […] Any eyes that developed visible leaks during outflow facility determination, or that had pressure-flow correlations with R^2<0.9, were excluded from analysis but were used for RNA quantification.

Mmp-2, Mmp-9, Mmp-13 [1] = assay: Mmp expression in TA and protein treated C57BL/6J eyes (Example 13); format: in vivo, mouse; details: vs BSA treated controls
PlatKO mice = assay: Outflow facility in protein treated PlatKO mouse eyes (Example 14); format: in vivo; details: intravitreal protein
Experimental: (§3) PlatKO and Mmp-9KO mice were also not given steroids prior to protein injections (FIG. 10c). Within each cohort, animals were divided into two groups:
as §1
as §2, with “BSS. Steady state was initially achieved after 10 minutes.” for “BSS.”

Mmp-2, Mmp-9, Mmp-13 [2] = assay: Mmp expression in protein treated PlatKO eyes (Example 14); format: in vivo, mouse; details: vs BSA treated eyes
Experimental: Tissue collection and confirmation of transgene expression: After outflow facility determination in adenovirus treated mice, mCherry expression in the TM was determined in all AdPLAT and AdPLATNE injected eyes. The eyes were dissected on ice to isolate a rim of tissue containing the TM by removing most of the iris and ciliary body. […] After observation, dissected rims were immediately immersed in RNA stabilizing agent (RNAlater, Invitrogen by ThermoFisher Scientific, Waltham, Mass., USA) and frozen. […]
RNA isolation and quantitative real time PCR: Tissue collected was pooled (four eyes) and homogenized in TRIzol reagent (Life Technologies, Carlsbad, Calif., USA). […] RNA concentration was determined with a Nanodrop ND-1000 Spectrophotometer (ThermoFisher Scientific, Waltham, Mass., USA). cDNA was synthesized by using High-Capacity cDNA Reverse Transcription Kit (Applied Biosystems, Waltham, Mass., USA) according to manufacturer's protocol. Quantitative real-time PCR (qRT-PCR) was performed by using Green-2-Go qPCR Mastermix-ROX (BioBasic, Amherst, N.Y., USA) on a QuantStudio 6 Flex thermal cycler (Applied Biosystems, Carlsbad, Calif., USA).
mRNA expression of sheep PLAT and mouse Mmp-2, Mmp-9, and Mmp-13 in angle ring tissues was determined. […] The relative fold change was calculated by using the ΔΔCt method. […]

[3] = system: Mmp-2, Mmp-9, Mmp-13, Plat; assay: Mmp and Plat expression in protein treated C57BL/6J eyes not exposed to steroids (Example 15); format: in vivo, mouse; details: C57BL/6J not exposed to steroids
Mmp-9KO mice = assay: Outflow facility in protein treated Mmp-9KO mouse eyes (Example 16); format: in vivo; details: intravitreal protein, p>0.05
Experimental: as §3, §1
as §2, with “BSS. Steady state was initially achieved after 10 minutes.” for “BSS.”

MMP-2, MMP-9, MMP-13 [4] = assay: MMP expression in PA treated HTM cells (Examples 17, 18); format: cell-based
Tg-MYOCY437H mice = assay: Outflow facility in Tg-MYOCY437H mouse eyes (Example 19); format: in vivo
Experimental: To investigate whether corticosteroids affect outflow facility in Tg-MYOCY437H mice, animals received bilateral injections (20 μl) with either triamcinolone acetonide (TA) (40 mg/ml, Kenalog-40; Bristol-Myers Squibb, NY, USA) suspension or phosphate-buffered saline (PBS) (Gibco, ThermoFisher Scientific, Waltham, Mass., USA) subconjunctivally using a 100 μL Hamilton syringe with a 26-gauge needle (Precision Glide, Becton Dickinson & CO, Franklin Lakes, N.J., USA). They were euthanized one week later for outflow facility measurement.
To investigate whether tPA can affect outflow facility in Tg-MYOCY437H mice, and determine whether tPA enzymatic action is necessary for such an effect, intravitreal injections were performed using a 10 μL Hamilton syringe with 36-gauge stainless steel needles (WPI Inc, Sarasota, Fla., USA). […] Animals were sacrificed either two or five days after intravitreal injections for outflow facility measurement. […]
Mouse eyes were enucleated immediately after euthanasia. Outflow facility was determined using a microfluidic flow sensor (0.07-1.5 uL/min, MFS1; Elveflow, Paris, France) and constant pressure method, as previously described (Hu, Barron et al. 2019). […] Any eyes that developed visible leaks or that had pressure-flow correlations with […] were excluded from analysis but were used for RNA quantification.

Mmp-2, Mmp-9, Mmp-13 [5] = assay: Mmp expression in Tg-MYOCY437H angle ring tissue (Example 19); format: in vivo, mouse; details: 2 days, vs BSA treated eyes
Experimental: Eyes were flash frozen in liquid nitrogen after outflow facility determination and subsequently dissected on ice to obtain the angle ring tissues containing the TM, as previously described (Kumar, Shah et al. 2013). Dissected TM tissues were immersed in RNAlater solution (Invitrogen, Waltham, Mass., USA) and then snap-frozen and stored at −80° C. until RNA extraction. Tissue collected was pooled (four eyes) and homogenized in TRIzol reagent for RNA isolation, per manufacturer's instructions (Life Technologies, Carlsbad, Calif., USA). RNA concentration was determined with a Nanodrop ND-1000 Spectrophotometer (Thermo Scientific, Wilmington, Del., USA). cDNA was synthesized by using High-Capacity cDNA Reverse Transcription Kit (Applied Biosystems, Waltham, Mass., USA) according to manufacturer's protocol. Quantitative real-time PCR (qRT-PCR) was performed by using Green-2-Go qPCR Mastermix-ROX (Bio Basic, Amherst, N.Y., USA) on a QuantStudio 6 Flex thermal cycler (Applied Biosystems, Carlsbad, Calif., USA). mRNA expression of Plat, Plau, Pai-1, Mmp-2, Mmp-9, and Mmp-13 in angle ring tissues was determined. Primers were designed by using Primer-BLAST (https://www.ncbi.nlm.nih.gov/tools/primer-blast/index.cgi?LINK_LOC=BlastHome; in the public domain); primer sequences are listed in Table 2. Primer specificity was confirmed by agarose gel electrophoresis and multiple-sized amplification products were absent on inspection of melting curves. Target mRNA expression values were normalized to the expression levels of Rps11 (ribosomal protein S11). The relative fold change was calculated by using the ΔΔCt method (Hu, Wang et al. 2015). Outliers identified via the Thompson Tau test were removed from analysis.

Row | Molecule | outflow facility, mean±standard deviation (C57BL/6J mice) | Mmp-2, Mmp-9 and Mmp-13 expression (Mmp-2, Mmp-9, Mmp-13 [1]) | increase in outflow facility compared to BSA treated eyes (PlatKO mice) [%] | outflow facility, mean±standard deviation (PlatKO mice; no steroid, two days) | Mmp-2 expression (Mmp-2, Mmp-9, Mmp-13 [2]) | Mmp-9 expression (Mmp-2, Mmp-9, Mmp-13 [2]) | endogenous Plat expression [3] | gene expression changes in Mmp-2, Mmp-9 and Mmp-13 ([3]; vs BSA) | effect on outflow facility (Mmp-9KO mice) | MMP-2 expression (MMP-2, MMP-9, MMP-13 [4]; PA treated HTM cells, between treatments) | expression (FIG. 17C, MMP-9) (MMP-2, MMP-9, MMP-13 [4]; PA treated HTM cells, vs PA+BSA) | improvement of outflow facility (Tg-MYOCY437H mice) [%] | Mmp-2 expression (Mmp-2, Mmp-9, Mmp-13 [5]) | Mmp-9 expression (Mmp-2, Mmp-9, Mmp-13 [5]) | Mmp-13 expression (Mmp-2, Mmp-9, Mmp-13 [5]) | MMP-9 expression (MMP-2, MMP-9, MMP-13 [4]; added to PA+NE-tPA, vs PA+NE-tPA treated cells)
1 | B1 | 114±40.3×10^−5 μl/min/mmHg | significant upregulation | 51 | 92±42×10^−5 μl/min/mmHg | not significantly different | significant upregulation | did not cause significant changes | not significantly different | did not increase | not significantly different | significant upregulation | ~37 | no significant difference | significantly higher | significantly higher | 
2 | B2 |  |  |  |  |  |  |  |  |  |  |  |  |  |  |  | significantly lower
